{"source": "paper PMC5228624", "target": "T1, arginine vasopressin (AVP) (UniProt P01185 20-28)", "T1 chain": "CYFQNCPRG", "assay": "bead capture, thermal elution, MALDI-TOF MS"}
{"binder": "ACCTGGGGGAGTATTGCGGAGGAAGGTAAAAAAA (ssDNA)", "note": "[ATP-specific aptamer (control)]", "values": [{"measurement": "binding result", "value": "no binding"}]}
